# Experiments:
# [1] = biological target: the molecule itself; experiment: dynamic light scattering; BDNF alone; Figure S4C; conditions not shown
# [2] = biological target: TrkB Ig2 domain (His283-Glu428) (rat); experiment: MST; in solution; TrkB variant (intact or legumain-processed) labelled with NT-647 RED and kept constant, unlabelled BDNF (20.5 uM) in a 16-step 1:2 dilution series; 1x PBS pH 7.4, 0.005% Tween 20; 10 min at RT; Monolith NT.115
# [3] = biological target: legumain-processed TrkB Ig2 domain (rat); experiment: as above
# [4] = biological target: T1, TrkB ectodomain (Ser29-Glu428) (rat, UniProt Q63604-1 29-428, several glycosylation forms; labelled with NT-647 RED dye in the MST set-up with labelled TrkB); experiment: as above; settings: both partners purified
# T1 construct: Secreted by way of the pHLsec vector; also called TrkB ECD; full-length ectodomain; source: HEK293S, transfected (pHLsec), secreted into medium, purified (Ni-NTA); not shown: His6, C-terminal, kept
# [5] = biological target: T2, legumain-processed TrkB ectodomain (rat, UniProt Q63604-1 29-391, glycosylated; labelled with NT-647 RED dye in the MST); experiment: as above; settings: both partners purified
# T2 construct: TrkB, rat, ectodomain construct Ser29-Glu428 cut by legumain in the membrane linker; dominant cleavage site after Asn391, minor sites after Asp385 and Asn389, so the C-terminus is a mixture; C-terminal limit is that of the dominant cleavage site (Asn391); the His6 tag is lost with the cut fragment; also called legumain-processed TrkB ECD; processed TrkB ECD; source: HEK293S, purified (Ni-NTA), …
# [6] = biological target: TrkB Ig2 domain (His283-Glu428) (rat); experiment: MST; in solution; TrkB ECD or Ig2 with proBDNF; which partner was labelled is not told; MST buffer 1x PBS pH 7.4, 0.005% Tween 20
# [7] = biological target: T1, TrkB ectodomain (Ser29-Glu428); experiment: as above; settings: both partners purified
# T1 sequence (Q63604 29-428): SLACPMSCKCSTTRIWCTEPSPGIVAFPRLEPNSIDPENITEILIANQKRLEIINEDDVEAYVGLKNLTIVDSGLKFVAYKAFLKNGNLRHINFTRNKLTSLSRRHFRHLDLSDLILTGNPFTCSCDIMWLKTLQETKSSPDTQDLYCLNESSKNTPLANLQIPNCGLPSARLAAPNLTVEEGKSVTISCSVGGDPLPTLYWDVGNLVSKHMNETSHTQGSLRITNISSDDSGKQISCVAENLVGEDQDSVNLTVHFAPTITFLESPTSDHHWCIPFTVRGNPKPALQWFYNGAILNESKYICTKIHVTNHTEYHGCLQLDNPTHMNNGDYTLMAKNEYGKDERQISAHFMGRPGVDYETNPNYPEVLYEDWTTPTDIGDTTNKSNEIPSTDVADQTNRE
# T2 sequence (Q63604 29-391): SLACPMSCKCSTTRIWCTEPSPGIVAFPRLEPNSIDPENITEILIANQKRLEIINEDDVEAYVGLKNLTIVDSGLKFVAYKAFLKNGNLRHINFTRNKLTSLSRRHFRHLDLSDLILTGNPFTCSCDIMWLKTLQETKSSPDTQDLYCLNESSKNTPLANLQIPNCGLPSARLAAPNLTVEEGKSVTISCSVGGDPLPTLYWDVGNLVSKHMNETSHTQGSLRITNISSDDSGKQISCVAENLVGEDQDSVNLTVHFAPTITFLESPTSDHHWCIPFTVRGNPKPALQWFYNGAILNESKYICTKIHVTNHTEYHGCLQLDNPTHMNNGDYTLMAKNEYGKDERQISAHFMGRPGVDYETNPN
Binder,stoichiometry N [1],Kd [2] [nM],Kd [3] [nM],Kd [4] [nM],Kd [5] [nM],Kd [6] [nM],Kd [7] [nM]
"Brain-derived neurotrophic factor (BDNF), mature (His131-Arg249) (ligand, rat, UniProt P23363 131-249, looked up, disulfides Cys143-Cys210, Cys188-Cys239, Cys199-Cys241; labelled with NT-647 RED dye in the MST set-up with labelled BDNF, mature BDNF, cut from proBDNF by furin, His131-Arg249; The species rests on the legend 'Preparation of rat TrkB and proBDNF'; the printed residue numbers fit a 249-residue precursor; also called mature BDNF) HSDPARRGELSVCDSISEWVTAADKKTAVDMSGGTVTVLEKVPVSKGQLKQYFYETKCNPMGYTKEGCRGIDKRHWNSQCRTTQSYVRALTMDSKKRIGWRFIRIDTSCVCTLTIKRGR",2,67,300,106 ± 44,188 ± 82,,
"proBDNF (ligand, rat, UniProt P23363 19-249, looked up, proBDNF, the pro-form of brain-derived neurotrophic factor; also called pro-form of BDNF; source: E. coli Rosetta 2 (DE3), inclusion bodies, folded in vitro, purified (SP-sepharose)) APMKEANVHGQGNLAYPAVRTHGTLESVNGPRAGSRGLTTTSLADTFEHVIEELLDEDQKVRPNEENHKDADLYTSRVMLSSQVPLEPPLLFLLEEYKNYLDAANMSMRVRRHSDPARRGELSVCDSISEWVTAADKKTAVDMSGGTVTVLEKVPVSKGQLKQYFYETKCNPMGYTKEGCRGIDKRHWNSQCRTTQSYVRALTMDSKKRIGWRFIRIDTSCVCTLTIKRGR",,,,,,441,306
